{"source": "the supplement of paper PMC9732359", "note": "± gives the uncertainty stated by the source."}
{"assay": "protein stability index of a GFP-peptide fusion (yeast GPS) (PSI 1-4); higher = more stable; sorted into four equal gates, so the index is relative within each strain", "conditions": "pdr5∆", "procedure,_shortened": "(§1)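 Mid-log yeast cultures in leucine-free medium, carrying a pooled plasmid library, were sorted into four equal gates by their GFP/Cherry fluorescence ratio. Each plasmid expressed Cherry along with GFP fused upstream of a tiled 17-residue yeast protein peptide. Plasmids recovered from each gate were PCR-amplified and Illumina-sequenced, with reads assigned to strains by barcodes. The protein stability index was obtained by summing each gate's read frequency weighted by its gate number.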"}
{"sequence": "IEHNLRVISEYYSRITL [RPN5]", "protein stability index": "2.54 ± 0.078"}
{"sequence": "IEKGSTFGINLIYVNPF [FAS1]", "protein stability index": "2.61 ± 0.068"}
{"assay": "protein stability index of a GFP-peptide fusion (yeast GPS) (PSI 1-4); higher = more stable; sorted into four equal gates, so the index is relative within each strain", "conditions": "san1∆", "procedure,_shortened": "as §1"}
{"sequence": "GSVIQTHIAESAKEIAK [MCD1]", "protein stability index": "3 ± 0.048"}
{"sequence": "GTGKTMLVKAVANSTKA [RPT3]", "protein stability index": "2.02 ± 0.096"}
{"sequence": "GTGNNNKLNFIVDDKQE [DIB1]", "protein stability index": "1.57 ± 0.17"}
{"sequence": "GTIKKIEQFAMRRNSKI [POP5]", "protein stability index": "2.6 ± 0.059"}
{"sequence": "GVAHLLNRFNFQNTNTR [QCR2]", "protein stability index": "2.43 ± 0.15"}
{"sequence": "GVARIYASFNDTFVHVT [RPS14B]", "protein stability index": "1.92 ± 0.077"}
{"sequence": "GVARNFHFAIEQISNNS [SIN4]", "protein stability index": "2.08 ± 0.064"}
{"sequence": "GVDPTGSHLFSIHAHGS [PUP1]", "protein stability index": "2.5 ± 0.11"}
{"sequence": "GVLKPDITFFGEALPNK [SIR2]", "protein stability index": "3.16 ± 0.091"}
{"sequence": "GVTIEFSTNVKDEIVLS [RPL9A]", "protein stability index": "3.3 ± 0.088"}
{"sequence": "GVWVRYDSRSGTHNMYK [RPL20A]", "protein stability index": "3.1 ± 0.29"}
{"sequence": "GYKMIPGAKPLQVGDVV [FAS1]", "protein stability index": "2.37 ± 0.1"}
{"sequence": "HAPAYHRSKKDQDQYLE [IRR1]", "protein stability index": "2.95 ± 0.19"}
{"sequence": "HAQLLLSDRITGNFIIP [PRP8]", "protein stability index": "2.37 ± 0.071"}
{"sequence": "HDYWNKIMQSISNKDVI [SRB4]", "protein stability index": "1.33 ± 0.19"}
{"sequence": "HEIYGSMPLEQLIPIIL [SRB4]", "protein stability index": "2.37 ± 0.08"}
{"sequence": "HEVVQDDSFSLLRIQML [PCI8]", "protein stability index": "2.74 ± 0.047"}
{"sequence": "HFFKWIEFIVYHQLLSD [SRB8]", "protein stability index": "2.03 ± 0.08"}
{"sequence": "HFNGIRRLDALVEKVYA [ITC1]", "protein stability index": "1.94 ± 0.28"}
{"sequence": "HGHLGFLPRKRAASIRA [RPL3]", "protein stability index": "2.79 ± 0.055"}
{"sequence": "HGLILELQKIWQIEEAG [SRB5]", "protein stability index": "3.19 ± 0.048"}
{"sequence": "HGLKQLRDSLADKIVDE [NUT2]", "protein stability index": "1.52 ± 0.071"}
{"sequence": "HGMSVDPRHIQLLGDVM [RPO31]", "protein stability index": "2.85 ± 0.049"}
{"sequence": "HGSISPQEESVSPNISS [SIR3]", "protein stability index": "2.98 ± 0.046"}
{"sequence": "HHELVPKHIRLSSDEKR [RPB5]", "protein stability index": "2.82 ± 0.18"}
{"sequence": "HHFTCEITGTSCLTFFQ [ITC1]", "protein stability index": "2.04 ± 0.078"}
{"sequence": "HHRIFDSSAHFKGALTI [YMR129W/POM152]", "protein stability index": "2.44 ± 0.14"}
{"sequence": "HICGICGLMTVIAKLNH [RPB2]", "protein stability index": "1.23 ± 0.14"}
{"sequence": "HIFQVEYALEAVKRGTC [PRE6]", "protein stability index": "2.54 ± 0.19"}
{"sequence": "HILAVKKMMNTLVHTRV [SSN2]", "protein stability index": "2.06 ± 0.086"}
{"sequence": "HINKIPSNSTTTLHGPG [SRB8]", "protein stability index": "2.96 ± 0.052"}
{"sequence": "HIPRLIPKQLLDDEKIF [YJL039C/NUP192]", "protein stability index": "1.87 ± 0.19"}
{"sequence": "HIQEEEEQDVDMTGDEE [RPC19]", "protein stability index": "3.05 ± 0.075"}
{"sequence": "HKDSFYDRATLTQLLSM [RPO31]", "protein stability index": "2.09 ± 0.071"}
{"sequence": "HKKDRLQYLPLYAVSTF [SIR4]", "protein stability index": "1.35 ± 0.054"}
{"sequence": "HKLDLAKRNLDANPSSQ [SMC2]", "protein stability index": "1.67 ± 0.091"}
{"sequence": "HKQISAEDLTIAAKTHI [SIN4]", "protein stability index": "3.35 ± 0.084"}
{"sequence": "HKSGKLSVKIGNVVMDI [RPC53]", "protein stability index": "1.07 ± 0.2"}
{"sequence": "HLCSGILSSVNRTVLLK [SRB8]", "protein stability index": "1.41 ± 0.17"}
{"sequence": "HLERNRKDKDAKFRLIL [RPS13]", "protein stability index": "3.38 ± 0.24"}
{"sequence": "HLGCVPIGEAGDFGGWF [RIP1]", "protein stability index": "2.7 ± 0.11"}
{"sequence": "HLLSINYGEKEERKRWA [PCI8]", "protein stability index": "3.41 ± 0.18"}
{"sequence": "HLNFPNVKFLRIFISNV [SNF12]", "protein stability index": "1.27 ± 0.13"}
{"sequence": "HLSHPGTNKDMILKLVC [ECM29]", "protein stability index": "1.32 ± 0.09"}
{"sequence": "HLSYCSNLTIYPIYELL [GRR1]", "protein stability index": "3.17 ± 0.062"}
{"sequence": "HNAGPVAGAGAASGAAA [RPP1B]", "protein stability index": "2.22 ± 0.12"}
{"sequence": "HNMLNLLIHRKGLTYLH [PRP8]", "protein stability index": "1.6 ± 0.1"}
{"sequence": "HPFGHALVAGIERYPSK [RPL27B]", "protein stability index": "2.24 ± 0.16"}
{"sequence": "HPIRLYTRYLDRIYMLF [PRP8]", "protein stability index": "2.29 ± 0.1"}
{"sequence": "HPWEQAKEVKVLYHTSG [PRP8]", "protein stability index": "3.03 ± 0.085"}
{"sequence": "HQGTPLGSHSSSQKDGN [REC8]", "protein stability index": "2.88 ± 0.13"}
{"sequence": "HRKHIAVLKKIQSKAVE [YCG1]", "protein stability index": "2.69 ± 0.1"}
{"sequence": "HRLKLCKSLISENEDTK [CSE2]", "protein stability index": "2.42 ± 0.2"}
{"sequence": "HRSGKIVVQLNGRLNKC [RPS22A]", "protein stability index": "2.98 ± 0.13"}
{"sequence": "HSQFMKDLKDDSIYTKP [YJL039C/NUP192]", "protein stability index": "3.02 ± 0.044"}
{"sequence": "HSRILPKKALKVKAGVR [RRP43]", "protein stability index": "1.57 ± 0.082"}
{"sequence": "HTEDTVNESRNSDDIID [SRB5]", "protein stability index": "2.43 ± 0.071"}
{"sequence": "HTLALEFVNGGKVVKNV [RRP46]", "protein stability index": "2.19 ± 0.29"}
{"sequence": "HTPTIASYLTPLLEAKK [SSN2]", "protein stability index": "3.01 ± 0.049"}
{"sequence": "HTSPHQPSDVKPTSHKQ [SIR4]", "protein stability index": "2.9 ± 0.047"}
{"sequence": "HVDSLIEDFVDGIANSK [SRB7]", "protein stability index": "3.04 ± 0.059"}
{"sequence": "HVINVGKTWEKLVLAAR [RPS0A]", "protein stability index": "3.39 ± 0.13"}
{"sequence": "HVKAGKGLIKVNGSPIT [RPS16A]", "protein stability index": "2.87 ± 0.061"}
{"sequence": "HVKIRATGGTRTKTPGP [RPS14B]", "protein stability index": "2.25 ± 0.25"}
{"sequence": "HVLKTVDYGGAEWSLVR [SNU114]", "protein stability index": "3.11 ± 0.18"}
{"sequence": "HVNKRKRVSGTSQHSDS [YOR098C/NUP1]", "protein stability index": "2.22 ± 0.1"}
{"sequence": "HVTQEDFELAVGKVMNK [RPT6]", "protein stability index": "2.62 ± 0.13"}
{"sequence": "HVVGRIAEVGNKRWKVD [RRP4]", "protein stability index": "2.89 ± 0.16"}
{"sequence": "HYLVNLTSPAFGPHVDV [GRR1]", "protein stability index": "2.16 ± 0.25"}
{"sequence": "HYPEIEDLVDRIENPEK [RPP0]", "protein stability index": "2.97 ± 0.12"}
{"sequence": "IAAIIGRLNTLVISLAA [IRR1]", "protein stability index": "2.31 ± 0.052"}
{"sequence": "IAATGLNQINGLNNDFL [GRR1]", "protein stability index": "3 ± 0.1"}
{"sequence": "IAAYIRRHRNPDLQFIV [SMC1]", "protein stability index": "1.2 ± 0.079"}
{"sequence": "IADLDTEAEETSIHSTI [RRP43]", "protein stability index": "3.54 ± 0.11"}
{"sequence": "IAGHDEFNGFSLYQVDP [PRE8]", "protein stability index": "3.21 ± 0.11"}
{"sequence": "IAGTFNVGKPDQSIASG [YOR098C/NUP1]", "protein stability index": "2.96 ± 0.063"}
{"sequence": "IAGVITRSKRLSQVYPT [CSN12]", "protein stability index": "3.11 ± 0.12"}
{"sequence": "IAHENEQKWLIYDKKDH [SRB8]", "protein stability index": "2.77 ± 0.17"}
{"sequence": "IAHNISAKNRVVILARA [RPL32]", "protein stability index": "1.76 ± 0.085"}
{"sequence": "IAKSRYWYFLQKLHKVK [RPL20A]", "protein stability index": "2.79 ± 0.075"}
{"sequence": "IAPRRKRLADGLSVTQK [DIS3]", "protein stability index": "3.16 ± 0.068"}
{"sequence": "IAQSKKKNNKIKESSKK [SRP21]", "protein stability index": "3.01 ± 0.072"}
{"sequence": "IASMSTVRASSLQDLIY [SMC2]", "protein stability index": "2.53 ± 0.092"}
{"sequence": "IAYGASQLLLERLMISS [RET1]", "protein stability index": "2 ± 0.16"}
{"sequence": "ICQIISSTITGDVVLAA [RPL5]", "protein stability index": "2.31 ± 0.069"}
{"sequence": "IDDRDYVGNKRLELAGQ [RET1]", "protein stability index": "3.05 ± 0.12"}
{"sequence": "IDEPIKSIMDGIHDGHI [FAS1]", "protein stability index": "1.52 ± 0.094"}
{"sequence": "IDFTLLNRLLRLIVDPN [PRP8]", "protein stability index": "1.84 ± 0.071"}
{"sequence": "IDGCVKIGDLGLARKFH [SSN3]", "protein stability index": "3.14 ± 0.058"}
{"sequence": "IDIQTQDLNQRFQDPYV [RRI1]", "protein stability index": "2.28 ± 0.22"}
{"sequence": "IDLDHKRFLILQGEVEN [SMC4]", "protein stability index": "1.81 ± 0.09"}
{"sequence": "IDLLLLGQERATDLAGP [PRP8]", "protein stability index": "2.34 ± 0.087"}
{"sequence": "IDMLPMLLGTDLCSLKP [DIS3]", "protein stability index": "2.69 ± 0.07"}
{"sequence": "IDQVNELVTISWVQPRI [RPN9]", "protein stability index": "3.22 ± 0.045"}
{"sequence": "IDSFFLYVLPSFNIPRL [YMR129W/POM152]", "protein stability index": "1.64 ± 0.093"}
{"sequence": "IDSTDHIRKASSKKSKR [LRP1]", "protein stability index": "1.83 ± 0.058"}
{"sequence": "IDYALTAVKQGVTSLGI [PRE8]", "protein stability index": "1.93 ± 0.071"}
{"sequence": "IEDVTPVPSDSTRKKGG [RPS14B]", "protein stability index": "2.96 ± 0.051"}
{"sequence": "IEEHPTVVDAIDNSDEI [IRR1]", "protein stability index": "3.38 ± 0.069"}
